Assay results taken from patent US12552866B2, “Internalizing binding molecules targeting receptors involved in cell proliferation or in cell differentiation” (LinXis B.V., priority 2019, dated 2026).
Changes are numbered by the printed parent chain. Entries after “also recorded” stand apart in the source; their conditions may differ.

Experiments:
hIGF2R-ECD [1] = molecular target: T1, hIGF2R-ECD (Homo sapiens, UniProt P11717); test: Competition ELISA with 13F11-A647 on immobilized hIGF2R-ECD; format: binding; details: for competition with 13F11 for binding to hIGF2R-ECD: 10 nM 13F11-A647, 250 nM unconjugated competitor
T1 construct: recombinant human extracellular domain of IGF2R (hIGF2R-ECD)
Protocol: With the term “compete” is meant that in a competition assay, such as for instance described in Example 5 and Example 8 of the present invention, the addition of a binding molecule induces a significant decrease in binding of a given VHH, i.e., the VHH to which the competing is determined. “Significant” in this respect is preferably a decrease of >5%, preferably >10% when 250 nM of a binding molecule is added to 10 nM of a fluorescence labelled VHH in an ELISA. […] The same test conditions and threshold apply to a binding molecule directed to PDGFRB when determining whether a binding molecule competes with a given VHH.
From the panel of 15 hIGF2R specific binders (FIG. 2), VHHs 13A8, 13A12, 13C11, 13E8, 13F11 and 13G10 were chosen for further characterization. A competition assay was performed to determine if the selected VHHs recognize distinct epitopes on hIGF2R. For this, a non-saturating amount (10 nM) of 13F11 conjugated to Alexa Fluor 647 (13F11-A647, conjugation method as described in example 9.2) was incubated with immobilized hIGF2R-ECD in the presence of unconjugated competitor (250 nM) (FIG. 10). Incubation of hIGF2R-ECD with 13F11-A647+13F11 was used as a positive control and incubation of hIGF2R-ECD with only 13F11-A647 was used to define the maximal fluorescence intensity.

[2] = In vivo pharmacokinetics in healthy Sprague-Dawley rats (serum ELISA); set-up: species or system rat
Protocol: The in vivo pharmacokinetic properties of 13F11-13E8-ABD was compared to 13F11-13E8 without the ABD moiety in healthy Sprague-Dawley rats. In brief, rats were dosed intravenously with approximately 3 mg/kg body weight and blood samples were taken at different time points and the concentration of the VHH constructs were determined using an ELISA on immobilized hIGF2R-ECD.

IGF2R [3] = molecular target: T2, IGF2R (Rattus norvegicus, UniProt G3V824); test: Immunofluorescence staining of tissue cryo-sections of BDL and SHAM rats
T2 construct: from tissue; host or cells: cryo-sections of liver and other tissues, and liver in vivo, of Sprague-Dawley BDL and SHAM rats
Protocol: After cryo-sectioning, the tissue sections were stained with 50 nM fluorescent 13F11-13E8-ABD-AF647 and incubated overnight at 4° C. Subsequently, the sections were washed and stained with DAPI and mounted with mowiol mounting medium (Merck) and were imaged on a Zeiss LSM700 laser scanning confocal microscope with a 20× objective.

IGF2R [4] = molecular target: T2, IGF2R; test: In situ detection of infused conjugate in liver cryo-sections (in vivo targeting of IGF2R)
Protocol: (§1) After catheterization and hemodynamic stabilization, rats were dosed with 5 mg/kg test conjugate or mock conjugate i.v. through the lateral tail vein and pressures were monitored continuously (example 13.1.). One hour after dosing, animals were sacrificed after which tissues were isolated for ex vivo analysis (example 13.2.).
After isolation, livers obtained from test conjugate-infused BDL and SHAM rats were fixated with paraformaldehyde, soaked in 30% (w/v) sucrose in PBS, and sectioned using cryo-microtome. To detect the test conjugate in situ, tissue sections were stained with a rabbit polyclonal anti-VHH antiserum recognizing the 13F11-13E8 moiety of the conjugate, followed by an anti-rabbit antibody conjugated to the fluorophore Alexa-488 for visualization by confocal fluorescence microscopy (cf. example 12). […] Further accumulation of the test conjugate in the BDL liver beyond this one-hour time point was likely to have occurred.

[5] = test system: BDL rats (portal hypertension); test: Portal pressure and mean arterial pressure in BDL and SHAM rats after i.v. dosing; format: in vivo, rat; details: 5 mg/kg i.v.
From the text: To evaluate in vivo functionality, 13F11-13E8-ABD was conjugated to a Y27632-maleimide modified functional moiety (1e) (the test conjugate) as outlined in example 9.2. To provide a comparator, a similar amount of 13F11-13E8-ABD was conjugated to N-ethylmaleimide in a parallel and similar preparation (the mock conjugate).
To establish animals displaying portal hypertension (Klein et al, Fibrosis: Methods and Protocols. Methods in Molecular Biology. 2017 (1627): 91-122.), Sprague-Dawley rats were subjected to bile duct ligation (BDL) through median laparotomy under ketamine/xylazine-induced anaesthesia i.p. (BDL rats). To provide healthy controls, a second cohort of rats was subjected to the same surgical procedure except for actual ligation of the bile duct (SHAM rats). Surgery was followed-up with pain control medication (carprofen s.c.). Approximately five weeks after surgery, ketamine/xylazine anesthetized rats were subjected to median laparotomy, after which one catheter was inserted through an ileocecal vein to the portal vein, and one catheter was inserted into the femoral artery. The catheters were connected to pressure recording equipment, for assessment of portal pressure and mean arterial pressure, respectively.
as §1

hIGF2R-ECD [6] = molecular target: T1, hIGF2R-ECD; test: Binding assay / titration ELISA on recombinant hIGF2R-ECD; details: construct conjugated to Alexa Fluor 647, direct read out; KD+SEM, n=2; read-out: calculated affinity (KD)
Protocol: The 15 unique hIGF2R binders (Example 1.1, FIG. 2) were produced and purified as described in examples 2 and 3. The apparent affinities were determined with binding assays on hIGF2R-ECD. Briefly, three-fold serial VHH dilutions, starting from 1 μM, were added onto hIGF2R-ECD coated plates. After 2 hours of incubation, plates were washed and bound VHH was detected using a VHH-specific IgG antibody, followed by an IRD800CW-conjugated IgG-specific antibody. […] VHH 13F11 was also produced with a C-terminal free cysteine and conjugated using maleimide chemistry to Alexa Fluor 647 (13F11-A647 in FIG. 8A, conjugation method as described in example 9.2). A titration ELISA (direct read out at 647 nm) with this construct was carried out on hIGF2R-ECD to determine whether the affinity was affected after site directed conjugation (FIG. 8B). The KD and Bmax were calculated in Graphpad (version 8.3), using one-site specific binding analysis (FIG. 8C).
Based on their high affinity and binding to non-overlapping receptor epitopes, VHHs 13F11 and 13E8 were selected for the design of biparatopic and bivalent VHH constructs. Two VHHs were fused with a flexible linker, consisting of three Gly-Gly-Gly-Gly-Ser repeats (FIG. 8A). The sequences were codon optimized for expression in E. coli and obtained as synthesized DNA fragments from GeneArt. The DNA fragments encoding VHHs were cloned into a vector pET28-based vector introducing a C-terminal free cysteine for site-directed conjugation and His6 tag for IMAC purification (FIG. 8A). The constructs were produced and purified as described in example 3. The constructs were conjugated to Alexa Fluor 647 (conjugation method as described in example 9.2) and titration ELISAs on recombinant hIGF2R-ECD (as described in example 4.1) were performed to determine the KD and Bmax (calculated in Graphpad (version 8.3), using one-site specific binding analysis) (FIG. 8C).
Next, 13F11-13E8 was genetically re-engineered to include an in vivo half-life extender in the form of an albumin binding domain (ABD) as described by Johansson et al (Structure, specificity, and mode of interaction for bacterial albumin-binding modules, J. Biol. Chem. 2002 (277): 8114-8120) and subsequently produced and purified as described in Example 3. Subsequently, 13F11-13E8-ABD was conjugated to IRDye800CW (F11E8-ABD-IRD800, conjugation method as described in example 9.2) and the binding affinities of the biparatopic VHH as well as the ABD unit was determined. […] The binding affinity (KD) of F11-E8-ABD-IRD800 to rat serum albumin (RSA) was 30 nM and to mouse serum albumin (MSA) and human serum albumin (HSA) the binding affinity was approximately 200 nM.

[7] = one hour after 5 mg/kg i.v., anti-VHH staining

T2 sequence (G3V824 36-2481): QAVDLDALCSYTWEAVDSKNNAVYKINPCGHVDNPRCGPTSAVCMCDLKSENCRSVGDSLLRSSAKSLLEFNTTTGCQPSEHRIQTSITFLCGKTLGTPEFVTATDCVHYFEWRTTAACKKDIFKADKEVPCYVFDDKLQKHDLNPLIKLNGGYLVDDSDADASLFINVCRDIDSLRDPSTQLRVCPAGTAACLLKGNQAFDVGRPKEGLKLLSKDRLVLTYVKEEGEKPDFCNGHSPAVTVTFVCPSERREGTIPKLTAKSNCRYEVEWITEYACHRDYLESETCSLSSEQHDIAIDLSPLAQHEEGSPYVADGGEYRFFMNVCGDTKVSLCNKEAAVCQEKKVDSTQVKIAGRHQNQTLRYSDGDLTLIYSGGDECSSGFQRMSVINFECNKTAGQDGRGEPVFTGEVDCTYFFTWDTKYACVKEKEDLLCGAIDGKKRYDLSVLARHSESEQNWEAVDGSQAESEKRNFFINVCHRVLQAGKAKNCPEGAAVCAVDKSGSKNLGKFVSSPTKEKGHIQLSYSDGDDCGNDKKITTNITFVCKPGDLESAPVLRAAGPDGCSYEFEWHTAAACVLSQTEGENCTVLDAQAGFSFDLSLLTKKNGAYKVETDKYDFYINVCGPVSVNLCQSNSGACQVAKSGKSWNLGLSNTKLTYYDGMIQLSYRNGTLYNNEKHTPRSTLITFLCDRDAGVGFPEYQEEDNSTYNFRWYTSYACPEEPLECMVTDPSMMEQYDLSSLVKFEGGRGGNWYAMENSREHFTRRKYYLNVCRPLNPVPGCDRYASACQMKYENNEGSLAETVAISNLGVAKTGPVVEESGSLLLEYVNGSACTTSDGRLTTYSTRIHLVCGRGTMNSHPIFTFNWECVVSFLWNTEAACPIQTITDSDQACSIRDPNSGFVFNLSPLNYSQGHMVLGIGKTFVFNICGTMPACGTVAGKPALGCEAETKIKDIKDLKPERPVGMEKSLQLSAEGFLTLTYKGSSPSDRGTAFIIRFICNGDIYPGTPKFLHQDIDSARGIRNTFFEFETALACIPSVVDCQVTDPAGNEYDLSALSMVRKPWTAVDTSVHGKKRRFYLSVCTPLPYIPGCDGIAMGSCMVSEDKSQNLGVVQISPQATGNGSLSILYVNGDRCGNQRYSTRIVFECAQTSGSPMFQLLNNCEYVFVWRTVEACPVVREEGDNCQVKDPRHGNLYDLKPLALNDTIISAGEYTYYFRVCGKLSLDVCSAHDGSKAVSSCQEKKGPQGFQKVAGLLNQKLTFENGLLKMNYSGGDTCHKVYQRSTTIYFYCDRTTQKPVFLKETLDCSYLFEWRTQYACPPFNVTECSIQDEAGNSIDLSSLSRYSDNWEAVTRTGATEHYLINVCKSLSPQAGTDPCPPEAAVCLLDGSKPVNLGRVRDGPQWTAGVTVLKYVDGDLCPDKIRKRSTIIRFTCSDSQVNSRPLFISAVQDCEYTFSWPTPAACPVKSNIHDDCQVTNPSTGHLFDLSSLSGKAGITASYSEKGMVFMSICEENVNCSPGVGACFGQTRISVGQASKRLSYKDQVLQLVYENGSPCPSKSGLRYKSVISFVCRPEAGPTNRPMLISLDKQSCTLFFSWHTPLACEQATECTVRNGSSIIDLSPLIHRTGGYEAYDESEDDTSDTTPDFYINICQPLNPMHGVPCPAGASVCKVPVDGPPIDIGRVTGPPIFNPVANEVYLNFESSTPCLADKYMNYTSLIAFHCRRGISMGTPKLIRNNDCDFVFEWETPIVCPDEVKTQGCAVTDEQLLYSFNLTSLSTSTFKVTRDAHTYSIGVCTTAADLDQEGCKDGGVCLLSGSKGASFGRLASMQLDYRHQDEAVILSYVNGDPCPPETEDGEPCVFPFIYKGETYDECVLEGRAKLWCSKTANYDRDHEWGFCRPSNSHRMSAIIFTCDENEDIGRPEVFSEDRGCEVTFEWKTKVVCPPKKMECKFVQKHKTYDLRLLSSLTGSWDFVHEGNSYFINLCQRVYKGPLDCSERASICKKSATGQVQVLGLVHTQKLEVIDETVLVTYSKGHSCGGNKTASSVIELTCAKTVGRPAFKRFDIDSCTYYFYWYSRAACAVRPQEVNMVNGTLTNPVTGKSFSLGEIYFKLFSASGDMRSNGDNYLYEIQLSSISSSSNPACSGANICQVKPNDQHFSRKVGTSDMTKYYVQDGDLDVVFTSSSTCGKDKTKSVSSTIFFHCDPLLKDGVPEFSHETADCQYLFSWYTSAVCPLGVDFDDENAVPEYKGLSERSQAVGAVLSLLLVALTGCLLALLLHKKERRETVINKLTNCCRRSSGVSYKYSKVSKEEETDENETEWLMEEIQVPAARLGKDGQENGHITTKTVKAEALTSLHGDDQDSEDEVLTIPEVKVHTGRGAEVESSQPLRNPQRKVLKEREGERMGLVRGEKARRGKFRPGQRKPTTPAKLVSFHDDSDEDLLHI

B1: 13C11: VHH targeting IGF2R, SEQ ID NO: 297 (protein, listed as Lama glama)
VHH: EVQLVESGGGLVQAGGSLRLSCAASGLTFSSYTMAWYRQAPGKEREVVAAISSGDSIYHEGSVQGRFIISRDNAKNTVYLQMNSLKAEDTAVYYCRANGPGTYWGQGTQVTVSS
competition with 13F11 for binding to hIGF2R-ECD (hIGF2R-ECD [1]): compete

B2: 13G10: VHH targeting IGF2R, SEQ ID NO: 305 (protein, listed as Lama glama)
VHH: B1 VHH with G61D
competition with 13F11 for binding to hIGF2R-ECD (hIGF2R-ECD [1]): compete

B3: 13A8: VHH targeting IGF2R, SEQ ID NO: 257 (protein, listed as Lama glama)
VHH: EVQLVESGGGLVPAGGSLRLSCAASGRTFSNYAMGWFRQAPGKERKFVATISWSGGVTYYADSVKGRFTISRDNAKNTVYLLMNSLKPEDTAVYYCAAKRDSSSYDHRRYDYWGQGTQVTVSS
competition with 13F11 for binding to hIGF2R-ECD (hIGF2R-ECD [1]): complete competition; also recorded: compete

B4: 13E8: VHH targeting IGF2R, SEQ ID NO: 249 (protein, listed as Lama glama)
VHH: EVQLVESGGGLVQAGGSLRLSCAASRSISPMGWYRQAPGKQRELVAIMPSSGPPIYADSVQGRFTISRDNAKNTVYLQMNSLKPEDTAVYYCNVGGGYWGQGTQVTVSS
competition with 13F11 for binding to hIGF2R-ECD (hIGF2R-ECD [1]): did not compete; also recorded: do not compete | decrease in fluorescence intensity of labelled 13F11 (hIGF2R-ECD [1]; 10 nM labelled 13F11, 250 nM unlabelled competitor): less than 5%

B5: 13F11-13E8-ABD: 13F11-13E8 re-engineered to include an albumin binding domain (ABD) as half-life extender (protein)
chain: EVQLVESGGRLVQPGDSLRLSCAASGRTFSDNAMGWFRQAPGKERRFVAGISWAGGSTYYSDSVKGRFTISRDNAKNTVYLQMNSLKPEDTAVYYCAAGLRAWVQRMPKDYNYWGQGTQVTVSSGGGGSGGGGSGGGGSEVQLVESGGGLVQAGGSLRLSCAASRSISPMGWYRQAPGKQRELVAIMPSSGPPIYADSVQGRFTISRDNAKNTVYLQMNSLKPEDTAVYYCNVGGGYWGQGTQVTVSS
modifications: left off: large carriers; small tags and cut ends
fraction of the infused dose still in circulation ([2]; one hour after dosing, estimated serum volume 10 mL): approximately 50% | Cmax ([2]; rat, i.v., approximately 3 mg/kg, read-out: peak serum level (Cmax)): > 1000 nM

B6: 13F11-13E8-ABD-AF647: 13F11-13E8-ABD conjugated to Alexa Fluor 647 (conjugate)
chain: B5 chain
modifications: left off: large carriers; small tags and cut ends
binding to cells in liver sections of BDL rats (IGF2R [3]; 50 nM, overnight at 4° C.): clearly binds to cells in a liver from BDL rats | binding to cells in liver sections of SHAM rats (IGF2R [3]; 50 nM, overnight at 4° C.): not to cells in a liver from SHAM rats | staining of other tissues (kidney, spleen, heart, ileum, brain) (IGF2R [3]; BDL and SHAM rats): no, or minor staining

B7: test conjugate: 13F11-13E8-ABD conjugated to a Y27632-maleimide modified functional moiety (1e) (conjugate)
chain: B5 chain
modifications: non-natural residues; left off: large carriers; small tags and cut ends
distribution of conjugate versus tissue distribution of IGF2R (IGF2R [4]; liver of BDL rats): overlapped with the (tissue) distribution of IGF2R; also recorded: displays co-localization with IGF2R | detection of conjugate in liver of BDL rats (IGF2R [4]; [7]): clearly detected | detection of conjugate in liver of SHAM rats (IGF2R [4]; [7]): not in the healthy liver of SHAM rats | mean arterial pressure (MAP) ([5]; BDL rats, one hour): remained constant | portal pressure (PP) ([5]; BDL rats, one hour): gradual decrease of portal pressure | portal or arterial pressure ([5]; SHAM rats): neither the test conjugate nor the mock conjugate affected portal or arterial pressure

B8: 13A12: VHH targeting IGF2R, SEQ ID NO: 289 (protein, listed as Lama glama)
VHH: EVQLVESGGGLVQAGGSLRLSCAASGIIFGANTVGWYRQVPGKERDVVASITSGDSTYYGDSVRGRFTISRDNAKNTMYLQMNSLKPEDTAIYYCRARTTDGSYWGQGTQVTVS
competition with 13F11 for binding to hIGF2R-ECD (hIGF2R-ECD [1]): compete

B9: 13F11-A647: VHH 13F11 with C-terminal free cysteine conjugated using maleimide chemistry to Alexa Fluor 647 (conjugate)
VHH: EVQLVESGGRLVQPGDSLRLSCAASGRTFSDNAMGWFRQAPGKERRFVAGISWAGGSTYYSDSVKGRFTISRDNAKNTVYLQMNSLKPEDTAVYYCAAGLRAWVQRMPKDYNYWGQGTQVTVSS
Kd (hIGF2R-ECD [6]): 1 ± 0.61 nM
